Values quoted from earlier work in article PMC3268021.
Where two headings read alike, the source gives them in different places.

Assays:
[1] = target: TXA2R (ligand-free) (UniProt P21731)
[2] = target: TXA2R (agonist-activated) (UniProt P21731)
[3] = target: Calmodulin (UniProt P0DP23)
[4] = target: phospholipase C (UniProt P19174)
[5] = target: phospholipase C (UniProt P19174); remark: listed apart in the source

UniProt P19174, sequence (P19174 2-1290): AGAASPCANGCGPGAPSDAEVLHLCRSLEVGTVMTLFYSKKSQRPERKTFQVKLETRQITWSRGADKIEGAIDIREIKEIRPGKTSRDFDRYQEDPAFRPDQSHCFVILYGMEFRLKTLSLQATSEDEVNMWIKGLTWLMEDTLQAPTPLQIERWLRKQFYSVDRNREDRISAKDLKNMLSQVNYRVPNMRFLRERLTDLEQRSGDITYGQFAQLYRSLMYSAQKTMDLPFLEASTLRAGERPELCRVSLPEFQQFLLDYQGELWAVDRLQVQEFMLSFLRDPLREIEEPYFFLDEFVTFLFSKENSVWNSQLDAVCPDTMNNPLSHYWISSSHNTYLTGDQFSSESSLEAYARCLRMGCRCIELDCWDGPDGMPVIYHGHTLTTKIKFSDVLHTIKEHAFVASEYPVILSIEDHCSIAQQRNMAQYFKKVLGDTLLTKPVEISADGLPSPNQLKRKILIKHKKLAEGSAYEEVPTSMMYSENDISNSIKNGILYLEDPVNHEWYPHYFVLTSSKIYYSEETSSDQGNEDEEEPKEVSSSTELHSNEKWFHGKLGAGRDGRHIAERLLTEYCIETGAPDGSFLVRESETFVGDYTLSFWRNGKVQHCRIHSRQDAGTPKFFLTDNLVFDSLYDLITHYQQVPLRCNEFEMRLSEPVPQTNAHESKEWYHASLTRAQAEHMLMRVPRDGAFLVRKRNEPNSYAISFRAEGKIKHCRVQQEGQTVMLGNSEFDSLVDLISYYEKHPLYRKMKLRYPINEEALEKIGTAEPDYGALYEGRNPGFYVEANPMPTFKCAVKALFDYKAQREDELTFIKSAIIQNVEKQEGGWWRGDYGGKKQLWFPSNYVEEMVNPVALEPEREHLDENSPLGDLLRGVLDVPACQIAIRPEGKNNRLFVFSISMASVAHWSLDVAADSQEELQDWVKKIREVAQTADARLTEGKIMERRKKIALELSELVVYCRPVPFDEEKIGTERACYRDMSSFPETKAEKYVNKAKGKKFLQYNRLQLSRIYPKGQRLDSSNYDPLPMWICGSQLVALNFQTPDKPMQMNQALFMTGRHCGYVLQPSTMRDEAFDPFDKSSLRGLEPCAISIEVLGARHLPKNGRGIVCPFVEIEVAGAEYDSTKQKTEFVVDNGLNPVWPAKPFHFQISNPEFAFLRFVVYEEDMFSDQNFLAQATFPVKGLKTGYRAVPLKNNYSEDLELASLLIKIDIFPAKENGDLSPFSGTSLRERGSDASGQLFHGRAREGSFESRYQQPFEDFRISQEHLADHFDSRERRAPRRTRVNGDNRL

Gαq C-terminal peptide C-terminal 15-mer peptide (from UniProt P50148)
Kd [1]: 17 µM
Kd [2]: 240 µM

pAC28 peptide of AC1 495-522 (from UniProt P19754)
Kd [3]: 0.002 µM

PCI-peptide 724-736 724-736 (from UniProt P19174)
Ki [4]: 3.5 µM
Ki [5]: 120 µM
